Experimental findings from publication PMC7305210, “Mitochondria-adaptor TRAK1 promotes kinesin-1 driven transport in crowded environments” (Nature Communications, 2020) are described below.

Data set [1] deals with the molecule itself. The experiment in a line: single-molecule fluorescence intensity distributions (TIRF) with labelling efficiencies from SEC absorption; intensity distributions of KIF5B∆-mCherry compared with mCherry-TRAK1 in the motility experiments; labelling efficiencies about 22% and about 88%.
The target of data set [2] is T1, GFP-labelled KIF5B∆ (KIF5B without the inhibitory domain, amino acids 906-963) (human, UniProt P33176 1-905).
T1 construct: Constitutively active construct; also called KIF5B∆-GFP; source: SF9 insect cells (FlexiBAC baculovirus), purified (Ni-NTA, 6xHis cleaved by 3C PreScission protease, second Ni-NTA); not shown: GFP, C-terminal, kept; 6xHis, C-terminal, cleaved
T1 sequence (looked up): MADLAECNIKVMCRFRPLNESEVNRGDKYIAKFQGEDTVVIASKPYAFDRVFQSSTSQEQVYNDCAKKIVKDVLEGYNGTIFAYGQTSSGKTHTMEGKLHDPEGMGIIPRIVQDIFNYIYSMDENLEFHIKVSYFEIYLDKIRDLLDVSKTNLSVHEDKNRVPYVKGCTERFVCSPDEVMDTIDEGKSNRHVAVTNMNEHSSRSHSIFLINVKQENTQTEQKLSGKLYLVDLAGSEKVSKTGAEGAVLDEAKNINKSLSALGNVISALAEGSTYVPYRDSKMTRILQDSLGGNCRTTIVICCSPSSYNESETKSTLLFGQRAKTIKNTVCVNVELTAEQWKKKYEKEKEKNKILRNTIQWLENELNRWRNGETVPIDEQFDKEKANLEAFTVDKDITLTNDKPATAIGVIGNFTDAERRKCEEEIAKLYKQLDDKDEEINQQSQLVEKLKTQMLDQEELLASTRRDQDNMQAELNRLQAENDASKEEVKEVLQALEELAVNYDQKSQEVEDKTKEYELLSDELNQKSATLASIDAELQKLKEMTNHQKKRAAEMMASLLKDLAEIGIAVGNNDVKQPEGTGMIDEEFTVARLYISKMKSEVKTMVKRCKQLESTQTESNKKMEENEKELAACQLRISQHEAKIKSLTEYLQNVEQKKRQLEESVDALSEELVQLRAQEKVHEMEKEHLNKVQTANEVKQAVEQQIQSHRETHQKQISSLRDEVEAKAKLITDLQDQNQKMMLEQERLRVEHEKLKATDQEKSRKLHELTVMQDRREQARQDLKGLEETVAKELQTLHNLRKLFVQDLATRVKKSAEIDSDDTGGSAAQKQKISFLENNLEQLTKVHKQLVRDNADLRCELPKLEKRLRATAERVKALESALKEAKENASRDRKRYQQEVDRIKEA
Described as above. Conditions: both partners purified.

Data set [3] concerns the target microtubules polymerized from porcine tubulin (porcine, UniProt P02550 1-451; Q767L7 1-444, Alexa Fluor 647 NHS ester on 20% of the tubulin in fluorescently labeled microtubules | Alexa Fluor 647 NHS ester on 20% of the tubulin in fluorescently labeled microtubules). As to the kind of experiment: single-molecule TIRF microscopy, two-colour co-movement on immobilised microtubules; KIF5B construct and 175 nM TRAK1 construct pre-incubated 10 min on ice, flushed onto bare immobilised microtubules in motility buffer with 1 mM Mg-ATP; room temperature; for the complexes traces of the mCherry-TRAK1 channel analysed. Conditions: both partners purified.

B1: mCherry-labelled full-length TRAK1 (natural protein, UniProt Q9UPV9-1 1-953, looked up)
chain: MALVFQFGQPVRAQPLPGLCHGKLIRTNACDVCNSTDLPEVEIISLLEEQLPHYKLRADTIYGYDHDDWLHTPLISPDANIDLTTEQIEETLKYFLLCAERVGQMTKTYNDIDAVTRLLEEKERDLELAARIGQSLLKKNKTLTERNELLEEQVEHIREEVSQLRHELSMKDELLQFYTSAAEESEPESVCSTPLKRNESSSSVQNYFHLDSLQKKLKDLEEENVVLRSEASQLKTETITYEEKEQQLVNDCVKELRDANVQIASISEELAKKTEDAARQQEEITHLLSQIVDLQKKAKACAVENEELVQHLGAAKDAQRQLTAELRELEDKYAECMEMLHEAQEELKNLRNKTMPNTTSRRYHSLGLFPMDSLAAEIEGTMRKELQLEEAESPDITHQKRVFETVRNINQVVKQRSLTPSPMNIPGSNQSSAMNSLLSSCVSTPRSSFYGSDIGNVVLDNKTNSIILETEAADLGNDERSKKPGTPGTPGSHDLETALRRLSLRRENYLSERRFFEEEQERKLQELAEKGELRSGSLTPTESIMSLGTHSRFSEFTGFSGMSFSSRSYLPEKLQIVKPLEGSATLHHWQQLAQPHLGGILDPRPGVVTKGFRTLDVDLDEVYCLNDFEEDDTGDHISLPRLATSTPVQHPETSAHHPGKCMSQTNSTFTFTTCRILHPSDELTRVTPSLNSAPTPACGSTSHLKSTPVATPCTPRRLSLAESFTNTRESTTTMSTSLGLVWLLKERGISAAVYDPQSWDRAGRGSLLHSYTPKMAVIPSTPPNSPMQTPTSSPPSFEFKCTSPPYDNFLASKPASSILREVREKNVRSSESQTDVSVSNLNLVDKVRRFGVAKVVNSGRAHVPTLTEEQGPLLCGPPGPAPALVPRGLVPEGLPLRCPTVTSAIGGLQLNSGIRRNRSFPTMVGSSMQMKAPVTLTSGILMGAKLSKQTSLR
notes: TRAK1 (trafficking kinesin protein 1), cDNA KIAA1042 from the Kazusa DNA Research Institute; 953 residues by the printed region 636-953; also called mCherry-TRAK1; trafficking kinesin protein 1; source: HEK293T cells, transfected, purified (StrepTactinXT, eluted by TEV cleavage of the N-terminal tag, Superose 6 SEC); not shown: mCherry, N-terminal, kept; TwinStrep-FLAG-Halo, N-terminal, cleaved
On to B1, for which the results for the “stoichiometry N” value in data set [1] and in data set [2] were 2 and 1 TRAK1 dimer per KIF5B dimer, respectively.

B2: KIF5B-GFP-mCherry-TRAK1 complex (complex)
chain 1: MADLAECNIKVMCRFRPLNESEVNRGDKYIAKFQGEDTVVIASKPYAFDRVFQSSTSQEQVYNDCAKKIVKDVLEGYNGTIFAYGQTSSGKTHTMEGKLHDPEGMGIIPRIVQDIFNYIYSMDENLEFHIKVSYFEIYLDKIRDLLDVSKTNLSVHEDKNRVPYVKGCTERFVCSPDEVMDTIDEGKSNRHVAVTNMNEHSSRSHSIFLINVKQENTQTEQKLSGKLYLVDLAGSEKVSKTGAEGAVLDEAKNINKSLSALGNVISALAEGSTYVPYRDSKMTRILQDSLGGNCRTTIVICCSPSSYNESETKSTLLFGQRAKTIKNTVCVNVELTAEQWKKKYEKEKEKNKILRNTIQWLENELNRWRNGETVPIDEQFDKEKANLEAFTVDKDITLTNDKPATAIGVIGNFTDAERRKCEEEIAKLYKQLDDKDEEINQQSQLVEKLKTQMLDQEELLASTRRDQDNMQAELNRLQAENDASKEEVKEVLQALEELAVNYDQKSQEVEDKTKEYELLSDELNQKSATLASIDAELQKLKEMTNHQKKRAAEMMASLLKDLAEIGIAVGNNDVKQPEGTGMIDEEFTVARLYISKMKSEVKTMVKRCKQLESTQTESNKKMEENEKELAACQLRISQHEAKIKSLTEYLQNVEQKKRQLEESVDALSEELVQLRAQEKVHEMEKEHLNKVQTANEVKQAVEQQIQSHRETHQKQISSLRDEVEAKAKLITDLQDQNQKMMLEQERLRVEHEKLKATDQEKSRKLHELTVMQDRREQARQDLKGLEETVAKELQTLHNLRKLFVQDLATRVKKSAEIDSDDTGGSAAQKQKISFLENNLEQLTKVHKQLVRDNADLRCELPKLEKRLRATAERVKALESALKEAKENASRDRKRYQQEVDRIKEAVRSKNMARRGHSAQIAKPIRPGQHPAASPTHPSAIRGGGAFVQNSQPVAVRGGGGKQV
chain 2: MALVFQFGQPVRAQPLPGLCHGKLIRTNACDVCNSTDLPEVEIISLLEEQLPHYKLRADTIYGYDHDDWLHTPLISPDANIDLTTEQIEETLKYFLLCAERVGQMTKTYNDIDAVTRLLEEKERDLELAARIGQSLLKKNKTLTERNELLEEQVEHIREEVSQLRHELSMKDELLQFYTSAAEESEPESVCSTPLKRNESSSSVQNYFHLDSLQKKLKDLEEENVVLRSEASQLKTETITYEEKEQQLVNDCVKELRDANVQIASISEELAKKTEDAARQQEEITHLLSQIVDLQKKAKACAVENEELVQHLGAAKDAQRQLTAELRELEDKYAECMEMLHEAQEELKNLRNKTMPNTTSRRYHSLGLFPMDSLAAEIEGTMRKELQLEEAESPDITHQKRVFETVRNINQVVKQRSLTPSPMNIPGSNQSSAMNSLLSSCVSTPRSSFYGSDIGNVVLDNKTNSIILETEAADLGNDERSKKPGTPGTPGSHDLETALRRLSLRRENYLSERRFFEEEQERKLQELAEKGELRSGSLTPTESIMSLGTHSRFSEFTGFSGMSFSSRSYLPEKLQIVKPLEGSATLHHWQQLAQPHLGGILDPRPGVVTKGFRTLDVDLDEVYCLNDFEEDDTGDHISLPRLATSTPVQHPETSAHHPGKCMSQTNSTFTFTTCRILHPSDELTRVTPSLNSAPTPACGSTSHLKSTPVATPCTPRRLSLAESFTNTRESTTTMSTSLGLVWLLKERGISAAVYDPQSWDRAGRGSLLHSYTPKMAVIPSTPPNSPMQTPTSSPPSFEFKCTSPPYDNFLASKPASSILREVREKNVRSSESQTDVSVSNLNLVDKVRRFGVAKVVNSGRAHVPTLTEEQGPLLCGPPGPAPALVPRGLVPEGLPLRCPTVTSAIGGLQLNSGIRRNRSFPTMVGSSMQMKAPVTLTSGILMGAKLSKQTSLR
notes: KIF5B, kinesin-1 heavy chain, human, amino acids 1-963; as m1; TRAK1, cDNA KIAA1042; as m5; Only traces of mCherry-TRAK1 were analysed, so that the moving particles are complexes; also called KIF5B-TRAK1 transport complex; source: the two purified proteins (m1 from SF9, m5 from HEK293T) pre-incubated 10 min on ice; not shown: GFP, C-terminal, kept; 6xHis, C-terminal, cleaved; mCherry, N-terminal, …
As for B2, the “median interaction time with microtubules” value in data set [3] was 19.3 s.
